In CN109957013A:
Where “and” joins values, the source holds several entries; their conditions need not be identical. Equal values may be shown once.

Legend:
[1] = biological target: H7N9病毒的血凝素HA (H7N9病毒); experiment: ELISA, positive control well
[2] = biological target: H7N9病毒的血凝素HA (H7N9病毒); experiment: ELISA of 293F supernatant with recombinant 7O2

阳性对照 was tested, and the 450 (absorbance at 450 nm) [1] was 1.15 (2×) and 1.21.

B1: 抗H7N9全人源单克隆抗体7O2 (antibody, V domains shown)
VH: EVQLVESGGGLVQPGGSLRLSCAASGFTFSSYWMHWVRQAPGKGLVWVSRINSDGSSTSYADSVKGRFTISRDNAKNTLYLQMNSLRAEDTAVYYCARRSKTGKFDPWGQGTLVTVSS
VL: SYELTQPPSVSVSPGQTARITCSGDALPKQYAYWYQQKPGQAPVLVIYKDSERPSGIPERFSGSSSGTTVTLTISGVQAEDEADYYCQSADSSGTLEVFGGGTKLTVLV
With B1 the 450 (absorbance at 450 nm) [2] was 3 and 3.12 and 2.96.
